Columns and labels:
human FcRn (human) [1] = biological target: human FcRn (human) (UniProt P55899); test: SPR, Biacore 8K, CM5 chip, antibody immobilised, human FcRn as analyte, pH 6.0
human FcRn (human) [2] = biological target: human FcRn (human) (UniProt P55899); test: SPR, Biacore 8K, CM5 chip, antibody immobilised, human FcRn as analyte, pH 6.0; average of multiple experiments

Sequence of human FcRn (human) (P55899 24-297 limits assumed, chain 1 of 2): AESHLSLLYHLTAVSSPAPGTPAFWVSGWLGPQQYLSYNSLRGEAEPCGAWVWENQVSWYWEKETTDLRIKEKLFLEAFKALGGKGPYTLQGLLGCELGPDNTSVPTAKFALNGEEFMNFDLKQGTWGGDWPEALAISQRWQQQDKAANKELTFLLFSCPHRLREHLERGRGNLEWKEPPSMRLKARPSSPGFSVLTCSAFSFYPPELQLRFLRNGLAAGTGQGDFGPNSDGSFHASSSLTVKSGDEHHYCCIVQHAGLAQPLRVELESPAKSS
Sequence of human FcRn (human) (beta, as listed by the source limits assumed, chain 2 of 2): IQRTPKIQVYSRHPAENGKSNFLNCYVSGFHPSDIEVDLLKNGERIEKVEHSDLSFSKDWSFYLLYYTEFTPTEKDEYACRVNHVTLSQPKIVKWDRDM

| Substance | Fold Increase (FI) relative to Rituximab (human FcRn (human) [1]) [fold] | Kd (human FcRn (human) [1]) [µM] | Kd (human FcRn (human) [2]) [µM] |
| --- | --- | --- | --- |
| APG-777 (Apogee) (antibody) | 10.5 | 0.202 |  |
| AVTX-009 (Avalo) (antibody) |  | 2.19 |  |
| CALY-002 (Calypso/Novartis) (antibody) | 1.1 | 1.95 |  |
| Rituximab (antibody) |  |  | 2.13 |
